doi:10.1101/2025.07.24.666634 (bioRxiv, 2025)

Target: the molecule itself
Assay: cryo-EM structure; blot-and-plunge, dGTPase 3 mg/mL on UltrAuFoil R1.2/1.3 Au300; single-particle analysis, D3 symmetry

B1: Escherichia coli dGTP Triphosphohydrolase (enzyme, UniProt P15723 1-505, looked up)
chain: MAQIDFRKKINWHRRYRSPQGVKTEHEILRIFESDRGRIINSPAIRRLQQKTQVFPLERNAAVRTRLTHSMEVQQVGRYIAKEILSRLKELKLLEAYGLDELTGPFESIVEMSCLMHDIGNPPFGHFGEAAINDWFRQRLHPEDAESQPLTDDRCSVAALRLRDGEEPLNELRRKIRQDLCHFEGNAQGIRLVHTLMRMNLTWAQVGGILKYTRPAWWRGETPETHHYLMKKPGYYLSEEAYIARLRKELNLALYSRFPLTWIMEAADDISYCVADLEDAVEKRIFTVEQLYHHLHEAWGQHEKGSLFSLVVENAWEKSRSNSLSRSTEDQFFMYLRVNTLNKLVPYAAQRFIDNLPAIFAGTFNHALLEDASECSDLLKLYKNVAVKHVFSHPDVERLELQGYRVISGLLEIYRPLLSLSLSDFTELVEKERVKRFPIESRLFHKLSTRHRLAYVEAVSKLPSDSPEFPLWEYYYRCRLLQDYISGMTDLYAWDEYRRLMAVEQ
notes: also called dGTPase; E. coli dGTPase
binding result: binds
